# How the values were obtained:
# human TMEM106B (human) [1] = target: human TMEM106B (human) (UniProt Q9NUM4); assay: FACS HEK+huTMEM 0.1 ug/ml
# human TMEM106B (human) [2] = target: human TMEM106B (human) (UniProt Q9NUM4); assay: FACS HeLa
# mouse TMEM106B (mouse) [3] = target: mouse TMEM106B (mouse) (UniProt Q80X71); assay: FACS Neuro2a
# human TMEM106B (human) [4] = target: human TMEM106B (human) (UniProt Q9NUM4); assay: FACS HEK+huTMEM 10 ug/ml
# human TMEM106B (human) [5] = target: human TMEM106B (human) (UniProt Q9NUM4); assay: FACS A549 1 ug/ml
# human TMEM106B (human) [6] = target: human TMEM106B (human) (UniProt Q9NUM4); assay: FACS, supernatant, hu-transfected HEK293
# human TMEM106B (human) [7] = target: human TMEM106B (human) (UniProt Q9NUM4); assay: FACS U251
# human TMEM106B (human) [8] = target: human TMEM106B (human) (UniProt Q9NUM4); assay: FACS A549
# human TMEM106B (human) [9] = target: human TMEM106B (human) (UniProt Q9NUM4); assay: FACS HEK+huTMEM 0.1 ug/ml (2nd column so headed)
# human TMEM106B (human) [10] = target: human TMEM106B (human) (UniProt Q9NUM4); assay: FACS A549 10 ug/ml
# mouse TMEM106B (mouse) [11] = target: mouse TMEM106B (mouse) (UniProt Q80X71); assay: FACS, transfected HEK293
# human TMEM106B (human) [12] = target: human TMEM106B (human) (UniProt Q9NUM4); assay: FACS, transfected HEK293
# human TMEM106B (human) [13] = target: human TMEM106B (human) (UniProt Q9NUM4); assay: FACS HEK+huTMEM 1.0 ug/ml
binder,measurement,setting,value
"TM-4 (antibody, V domains shown) VH: EVQVQQSGPVLVKPGASVKMSCKASGYTFTDYYMNWVKQSHGKNLEWIGVINPYNGGTSYHQKFKGKATLTVDKSSSTAYMELNSLTSEDSAVYYCARAATVVAGFDYWGQGTTLTVSS VL: QAVVTQESALTTSPGETVTLTCRSSTGAVTTSNYANWVQEKPDHLFTGLIGGTNNRAPGVPARFSGSLIGDKAALTITGAQTEDEAIYFCVLWYSNHLVFGGGTKLTVL",MFI,human TMEM106B (human) [1],304 MFI
same,MFI,human TMEM106B (human) [2],323 MFI
same,MFI,mouse TMEM106B (mouse) [3],325 MFI
same,MFI,human TMEM106B (human) [4],846 MFI
same,MFI,human TMEM106B (human) [5],373 MFI
same,fold over negative controls,human TMEM106B (human) [6],> 2 fold
same,MFI,human TMEM106B (human) [7],349 MFI
same,MFI,human TMEM106B (human) [8],916 MFI
same,MFI,human TMEM106B (human) [9],282 MFI
same,MFI,human TMEM106B (human) [10],443 MFI
same,fold over parental HEK293,mouse TMEM106B (mouse) [11],1.97 fold
same,fold over parental HEK293,human TMEM106B (human) [12],1.13 fold
same,MFI,human TMEM106B (human) [13],415 MFI
